From patent US20100184658A1 (published 2010)

How the values were obtained:
Assay in all cases: cell-based or functional assay
ABL1 G250E = ABL1 G250E (UniProt P00519 1-1130, limits assumed)
PLK1 Polo-like kinase 1 = PLK1 Polo-like kinase 1 (UniProt P53350 1-603, limits assumed)
PRKCB2 (PKC beta II) = PRKCB2 (PKC beta II) (human (printed as (h)), UniProt P05771-2 1-673)
PRKCZ (PKC zeta) = biological target: T1, PRKCZ (PKC zeta) (human (printed as (h)), UniProt Q05513 1-592, limits assumed)
T1 sequence (looked up): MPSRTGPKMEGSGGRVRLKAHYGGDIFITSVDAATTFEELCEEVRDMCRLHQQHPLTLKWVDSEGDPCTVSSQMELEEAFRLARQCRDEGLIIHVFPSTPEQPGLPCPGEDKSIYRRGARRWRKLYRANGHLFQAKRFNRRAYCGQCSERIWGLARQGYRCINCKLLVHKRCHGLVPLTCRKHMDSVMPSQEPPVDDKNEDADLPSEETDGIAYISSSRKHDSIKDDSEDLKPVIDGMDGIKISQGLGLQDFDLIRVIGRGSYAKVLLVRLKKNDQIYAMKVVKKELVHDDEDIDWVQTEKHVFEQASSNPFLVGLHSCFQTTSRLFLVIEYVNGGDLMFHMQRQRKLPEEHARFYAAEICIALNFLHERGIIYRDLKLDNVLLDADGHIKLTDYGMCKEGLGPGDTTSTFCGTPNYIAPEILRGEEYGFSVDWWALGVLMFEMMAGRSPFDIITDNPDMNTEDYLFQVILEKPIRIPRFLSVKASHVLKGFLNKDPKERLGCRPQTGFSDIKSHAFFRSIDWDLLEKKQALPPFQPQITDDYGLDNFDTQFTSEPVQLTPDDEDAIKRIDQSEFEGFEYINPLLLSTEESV

[1] = biological target: T2, NEK9 NIMA (never in mitosis gene a)-related kinase 9 (UniProt Q8TD19 1-979, limits assumed)
T2 sequence (looked up): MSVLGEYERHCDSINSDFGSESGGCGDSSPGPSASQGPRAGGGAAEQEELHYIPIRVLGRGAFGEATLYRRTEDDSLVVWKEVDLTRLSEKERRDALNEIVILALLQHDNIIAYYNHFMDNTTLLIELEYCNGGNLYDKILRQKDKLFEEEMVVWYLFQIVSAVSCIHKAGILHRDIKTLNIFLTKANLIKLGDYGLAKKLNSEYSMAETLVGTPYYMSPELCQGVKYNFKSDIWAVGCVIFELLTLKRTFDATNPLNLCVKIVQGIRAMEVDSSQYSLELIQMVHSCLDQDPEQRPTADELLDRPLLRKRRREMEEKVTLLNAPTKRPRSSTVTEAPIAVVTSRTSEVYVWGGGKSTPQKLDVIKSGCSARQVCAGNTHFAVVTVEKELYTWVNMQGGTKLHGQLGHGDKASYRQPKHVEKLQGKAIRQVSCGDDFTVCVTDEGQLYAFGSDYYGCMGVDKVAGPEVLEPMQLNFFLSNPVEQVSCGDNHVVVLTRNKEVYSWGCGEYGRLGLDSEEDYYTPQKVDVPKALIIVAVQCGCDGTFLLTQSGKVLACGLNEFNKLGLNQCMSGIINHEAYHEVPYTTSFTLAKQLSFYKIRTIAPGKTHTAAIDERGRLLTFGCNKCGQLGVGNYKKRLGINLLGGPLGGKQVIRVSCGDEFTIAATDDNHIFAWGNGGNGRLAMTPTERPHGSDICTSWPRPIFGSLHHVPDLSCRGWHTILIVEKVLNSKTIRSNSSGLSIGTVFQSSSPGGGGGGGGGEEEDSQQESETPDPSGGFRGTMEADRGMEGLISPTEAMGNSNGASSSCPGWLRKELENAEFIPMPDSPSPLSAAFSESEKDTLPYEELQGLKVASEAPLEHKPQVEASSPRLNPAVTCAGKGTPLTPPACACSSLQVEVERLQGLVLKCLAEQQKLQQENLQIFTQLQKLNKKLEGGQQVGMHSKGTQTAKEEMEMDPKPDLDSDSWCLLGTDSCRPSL

[2] = biological target: RPS6KA3 (RSK2) Ribosomal protein S6 kinase, 90 kDa, polypeptide 3 (UniProt P51812 1-740, limits assumed)
Chain of RPS6KA3 (RSK2) Ribosomal protein S6 kinase, 90 kDa, polypeptide 3 (P51812 whole entry): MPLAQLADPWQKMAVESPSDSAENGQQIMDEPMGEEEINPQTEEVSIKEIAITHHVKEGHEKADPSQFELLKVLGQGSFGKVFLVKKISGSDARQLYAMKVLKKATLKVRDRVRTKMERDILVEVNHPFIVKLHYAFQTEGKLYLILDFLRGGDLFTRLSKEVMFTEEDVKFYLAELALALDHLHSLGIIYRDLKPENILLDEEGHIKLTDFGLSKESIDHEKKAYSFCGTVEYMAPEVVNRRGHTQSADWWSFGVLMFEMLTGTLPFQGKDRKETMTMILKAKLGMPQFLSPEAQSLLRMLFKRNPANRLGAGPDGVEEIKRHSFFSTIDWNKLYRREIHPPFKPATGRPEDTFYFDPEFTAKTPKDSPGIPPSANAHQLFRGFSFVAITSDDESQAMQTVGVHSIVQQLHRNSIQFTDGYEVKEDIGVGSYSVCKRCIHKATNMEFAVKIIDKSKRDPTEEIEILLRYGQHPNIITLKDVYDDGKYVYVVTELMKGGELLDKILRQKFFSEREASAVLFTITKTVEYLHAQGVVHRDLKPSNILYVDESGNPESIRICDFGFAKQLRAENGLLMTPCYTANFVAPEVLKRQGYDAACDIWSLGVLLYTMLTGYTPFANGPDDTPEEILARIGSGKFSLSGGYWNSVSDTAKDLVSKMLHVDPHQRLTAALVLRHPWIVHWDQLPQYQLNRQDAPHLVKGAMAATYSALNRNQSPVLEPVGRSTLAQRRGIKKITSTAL

PIM2 = PIM2 (UniProt Q9P1W9 1-311, limits assumed)
Chain of PIM2 (Q9P1W9 whole entry): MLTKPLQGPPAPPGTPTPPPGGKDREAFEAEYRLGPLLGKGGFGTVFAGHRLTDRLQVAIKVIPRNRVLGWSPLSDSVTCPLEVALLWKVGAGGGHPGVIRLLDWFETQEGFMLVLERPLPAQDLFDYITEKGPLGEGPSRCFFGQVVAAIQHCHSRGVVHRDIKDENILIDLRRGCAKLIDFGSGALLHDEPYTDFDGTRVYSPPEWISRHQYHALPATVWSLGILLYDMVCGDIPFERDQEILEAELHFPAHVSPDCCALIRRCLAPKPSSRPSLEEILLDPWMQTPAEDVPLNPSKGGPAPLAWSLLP

CAMK2A (CaMKII alpha) = CAMK2A (CaMKII alpha) (UniProt Q9UQM7 1-478, limits assumed)
Chain of CAMK2A (CaMKII alpha) (Q9UQM7 whole entry): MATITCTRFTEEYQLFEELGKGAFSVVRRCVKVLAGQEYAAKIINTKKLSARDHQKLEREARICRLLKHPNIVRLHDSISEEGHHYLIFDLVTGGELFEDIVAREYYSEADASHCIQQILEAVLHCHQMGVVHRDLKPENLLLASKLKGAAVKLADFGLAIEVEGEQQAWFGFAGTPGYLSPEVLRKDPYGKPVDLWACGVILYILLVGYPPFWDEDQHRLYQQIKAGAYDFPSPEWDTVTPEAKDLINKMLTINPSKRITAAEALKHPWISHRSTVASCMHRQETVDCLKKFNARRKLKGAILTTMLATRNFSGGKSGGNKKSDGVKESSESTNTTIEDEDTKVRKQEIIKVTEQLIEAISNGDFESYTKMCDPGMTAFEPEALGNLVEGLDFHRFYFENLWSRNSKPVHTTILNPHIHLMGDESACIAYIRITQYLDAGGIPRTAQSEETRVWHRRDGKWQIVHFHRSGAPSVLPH

MYLK2 (skMLCK) = MYLK2 (skMLCK) (UniProt Q9H1R3 1-596, limits assumed)
Chain of MYLK2 (skMLCK) (Q9H1R3 whole entry): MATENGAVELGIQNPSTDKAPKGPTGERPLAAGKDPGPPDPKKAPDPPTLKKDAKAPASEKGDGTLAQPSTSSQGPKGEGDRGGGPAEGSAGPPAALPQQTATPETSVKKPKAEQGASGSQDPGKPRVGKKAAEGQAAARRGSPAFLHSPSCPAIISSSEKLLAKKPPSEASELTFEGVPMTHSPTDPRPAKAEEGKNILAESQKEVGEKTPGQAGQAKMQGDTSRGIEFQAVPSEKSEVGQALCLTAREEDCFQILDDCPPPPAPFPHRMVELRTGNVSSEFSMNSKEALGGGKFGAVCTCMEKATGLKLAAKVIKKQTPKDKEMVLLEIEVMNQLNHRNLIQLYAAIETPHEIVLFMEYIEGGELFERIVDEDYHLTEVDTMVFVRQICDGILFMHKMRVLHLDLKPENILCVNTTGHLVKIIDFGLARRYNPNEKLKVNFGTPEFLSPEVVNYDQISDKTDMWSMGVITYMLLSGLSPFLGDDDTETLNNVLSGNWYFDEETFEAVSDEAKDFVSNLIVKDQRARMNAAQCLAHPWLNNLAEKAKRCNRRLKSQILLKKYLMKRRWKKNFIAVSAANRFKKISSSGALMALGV

ADRBK1 (GRK2) = biological target: T3, ADRBK1 (GRK2) (UniProt P25098 1-689, limits assumed)
T3 sequence (looked up): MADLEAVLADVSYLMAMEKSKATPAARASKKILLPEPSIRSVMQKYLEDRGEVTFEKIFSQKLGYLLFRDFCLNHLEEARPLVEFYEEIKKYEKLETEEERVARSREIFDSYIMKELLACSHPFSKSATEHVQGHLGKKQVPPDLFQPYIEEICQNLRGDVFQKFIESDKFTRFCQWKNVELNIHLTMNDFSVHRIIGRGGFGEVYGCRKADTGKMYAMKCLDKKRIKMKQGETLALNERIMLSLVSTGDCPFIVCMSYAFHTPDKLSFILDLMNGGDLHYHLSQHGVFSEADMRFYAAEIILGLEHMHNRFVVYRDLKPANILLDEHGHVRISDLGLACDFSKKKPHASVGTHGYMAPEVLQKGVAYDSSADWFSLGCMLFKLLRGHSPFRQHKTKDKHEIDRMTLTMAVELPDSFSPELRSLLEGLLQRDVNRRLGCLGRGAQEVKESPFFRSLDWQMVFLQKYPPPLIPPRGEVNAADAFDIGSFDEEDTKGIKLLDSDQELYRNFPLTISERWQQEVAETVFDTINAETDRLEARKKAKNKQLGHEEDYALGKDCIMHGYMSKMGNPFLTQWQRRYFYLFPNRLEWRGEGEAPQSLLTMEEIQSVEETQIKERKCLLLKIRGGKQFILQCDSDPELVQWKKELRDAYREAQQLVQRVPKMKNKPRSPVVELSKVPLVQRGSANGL

Chain of ABL1 G250E (P00519 whole entry G250E): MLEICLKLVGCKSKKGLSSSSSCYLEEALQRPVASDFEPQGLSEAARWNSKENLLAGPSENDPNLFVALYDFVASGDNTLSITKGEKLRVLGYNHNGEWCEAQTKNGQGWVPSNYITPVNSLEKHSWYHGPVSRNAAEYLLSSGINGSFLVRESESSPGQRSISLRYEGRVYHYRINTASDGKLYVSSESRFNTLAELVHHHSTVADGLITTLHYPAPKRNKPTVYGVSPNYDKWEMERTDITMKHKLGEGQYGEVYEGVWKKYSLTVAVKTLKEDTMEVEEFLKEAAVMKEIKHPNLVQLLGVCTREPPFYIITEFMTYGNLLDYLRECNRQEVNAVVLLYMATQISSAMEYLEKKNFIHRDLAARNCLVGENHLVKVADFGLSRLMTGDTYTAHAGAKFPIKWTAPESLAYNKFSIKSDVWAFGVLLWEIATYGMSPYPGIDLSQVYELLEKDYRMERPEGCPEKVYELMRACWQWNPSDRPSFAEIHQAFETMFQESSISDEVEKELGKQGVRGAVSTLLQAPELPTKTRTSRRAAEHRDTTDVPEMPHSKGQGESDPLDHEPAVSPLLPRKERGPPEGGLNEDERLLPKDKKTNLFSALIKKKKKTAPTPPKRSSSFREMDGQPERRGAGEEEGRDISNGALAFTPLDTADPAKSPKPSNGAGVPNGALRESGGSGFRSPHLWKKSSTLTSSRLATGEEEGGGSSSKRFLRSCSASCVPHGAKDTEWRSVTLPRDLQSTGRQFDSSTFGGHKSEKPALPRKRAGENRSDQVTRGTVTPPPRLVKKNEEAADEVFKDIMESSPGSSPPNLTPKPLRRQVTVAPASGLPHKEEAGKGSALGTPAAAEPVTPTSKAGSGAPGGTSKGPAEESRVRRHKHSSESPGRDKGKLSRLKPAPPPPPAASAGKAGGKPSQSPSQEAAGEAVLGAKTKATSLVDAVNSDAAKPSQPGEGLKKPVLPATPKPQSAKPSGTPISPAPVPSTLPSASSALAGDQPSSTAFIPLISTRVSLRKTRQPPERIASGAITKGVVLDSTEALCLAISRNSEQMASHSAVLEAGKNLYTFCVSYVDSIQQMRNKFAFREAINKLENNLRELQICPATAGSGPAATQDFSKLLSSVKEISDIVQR
Chain of PLK1 Polo-like kinase 1 (P53350 whole entry): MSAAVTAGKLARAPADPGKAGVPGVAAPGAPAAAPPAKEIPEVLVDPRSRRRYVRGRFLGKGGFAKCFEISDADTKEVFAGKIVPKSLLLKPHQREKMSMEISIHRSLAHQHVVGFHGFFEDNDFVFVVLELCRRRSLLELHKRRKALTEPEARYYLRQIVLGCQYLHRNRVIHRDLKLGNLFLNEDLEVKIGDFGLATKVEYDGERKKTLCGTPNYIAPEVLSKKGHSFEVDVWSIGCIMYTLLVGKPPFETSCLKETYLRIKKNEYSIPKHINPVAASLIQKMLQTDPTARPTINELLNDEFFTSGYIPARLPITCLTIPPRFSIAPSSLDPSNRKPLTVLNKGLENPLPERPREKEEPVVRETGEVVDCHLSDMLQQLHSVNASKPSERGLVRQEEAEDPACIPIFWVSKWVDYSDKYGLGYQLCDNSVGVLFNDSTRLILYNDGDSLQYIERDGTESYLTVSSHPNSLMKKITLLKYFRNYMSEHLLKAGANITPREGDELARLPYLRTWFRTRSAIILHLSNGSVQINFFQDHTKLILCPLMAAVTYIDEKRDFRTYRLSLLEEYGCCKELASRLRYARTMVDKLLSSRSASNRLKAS
Chain of PRKCB2 (PKC beta II) (human (printed as (h)), UniProt P05771-2 1-673) (P05771 other isoform, or with tags, fused parts or gaps limits assumed): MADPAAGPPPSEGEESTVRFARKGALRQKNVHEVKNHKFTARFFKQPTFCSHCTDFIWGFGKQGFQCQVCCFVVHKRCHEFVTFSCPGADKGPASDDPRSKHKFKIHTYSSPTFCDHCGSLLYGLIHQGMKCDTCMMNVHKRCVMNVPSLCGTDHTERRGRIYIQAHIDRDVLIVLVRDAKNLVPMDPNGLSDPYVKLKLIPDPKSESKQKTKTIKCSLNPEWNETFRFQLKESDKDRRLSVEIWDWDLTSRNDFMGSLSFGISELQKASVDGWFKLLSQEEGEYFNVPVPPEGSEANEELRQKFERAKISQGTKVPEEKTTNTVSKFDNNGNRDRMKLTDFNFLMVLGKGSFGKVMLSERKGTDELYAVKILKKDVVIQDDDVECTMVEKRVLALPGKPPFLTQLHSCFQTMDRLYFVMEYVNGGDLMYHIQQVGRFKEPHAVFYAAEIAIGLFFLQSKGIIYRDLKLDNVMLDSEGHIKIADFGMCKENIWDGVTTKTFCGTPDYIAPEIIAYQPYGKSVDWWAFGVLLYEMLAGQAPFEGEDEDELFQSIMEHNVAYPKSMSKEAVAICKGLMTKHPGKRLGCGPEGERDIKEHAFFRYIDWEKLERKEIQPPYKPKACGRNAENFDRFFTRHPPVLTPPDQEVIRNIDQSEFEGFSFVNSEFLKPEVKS

B1: D3 peptide (peptide)
peptide: SGRPPMIVWFNRPFLIAVSHTHGQTILFMAKVINPVGA
% Inhibition mean (ABL1 G250E): 50.7%
% Inhibition mean (PLK1 Polo-like kinase 1): 51%
% Inhibition mean (PRKCB2 (PKC beta II)): 61.6%
% Inhibition mean (PRKCZ (PKC zeta)): 74.4%
% Inhibition mean [1]: 108%
% Inhibition mean [2]: 93%
% Inhibition mean (PIM2): 89.9%
% Inhibition mean (CAMK2A (CaMKII alpha)): 82.6%
% Inhibition mean (MYLK2 (skMLCK)): 64.6%
% Inhibition mean (ADRBK1 (GRK2)): 56.1%
